The text below walks through data of US20260258115A1 (MAPP BIOPHARMACEUTICAL, published 2026).

Positions count from the first letter of the chain named.

For assay [1], the target named is RSV F on recombinant mKate-RSV A2 virus (Respiratory syncytial virus A2, UniProt P03420 26-574). Description: cell-based or functional assay.
Assay [2] concerns the target RSV F on recombinant mKate-RSV B 18537 virus (Respiratory syncytial virus B 18537, UniProt P13843 26-574). Description: cell-based or functional assay.
Assay [3] concerns the target RSV prefusion F, subtype A (preF, DS-Cav1 trimer) (Respiratory syncytial virus subtype A, UniProt P03420 26-513). Briefly: BLI, IgG apparent affinity. Background: In BLI a coated tip is dipped into the sample, and binding shifts an interference pattern.
Assay [4] deals with RSV prefusion F (preF), DS-Cav1 (respiratory syncytial virus, UniProt P03420 26-513). Description: BLI, IgG on sensor, 100 nM antigen.
Assay [5] addresses RSV postfusion F (postF), F deltaFP (respiratory syncytial virus, UniProt P03420 26-513). Briefly: BLI, IgG on sensor.
The target of assay [6] is RSV fusion glycoprotein (RSV F) on RSV-A2 virus (respiratory syncytial virus, UniProt P03420 26-574). Description: cell-based or functional assay.
The target in another assay is RSV F on RSV-A2 virus (Respiratory syncytial virus, RSV-A2, UniProt P03420 26-574). Description: cell-based or functional assay.
Assay [7] deals with RSV postfusion F (postF), F ΔFP (Respiratory syncytial virus, UniProt P03420 26-513). Description: BLI, IgG on anti-human IgG sensor.
In assay [8] the target is RSV prefusion F (preF), DS-Cav1 (Respiratory syncytial virus, UniProt P03420 26-513). Description: BLI, IgG on anti-human IgG sensor, 100 nM antigen.

B1: ADI-21069 (antibody, V domains shown)
VH: EVQLVESGAEVRKPGASVKVSCKASGYTFSSNAISWVRQAPGQGLEWMGYISVFNGNTKYAQNLQGRVTMTTDTATSTVYMELRSLRYDDTAIYYCARESLGMGGFYFDHWGQGTLVTVSS
VL: SYELTQPPSVSVAPGQTARITCGANNIGSDSVHWYQQKPGQAPVLVVFDDRDRPSGIPERFSGSNSGNTATLTISRVEAGDEADYYCQVWMTSDRSVFGGGTKLTVL
On to B1, for which the “Neut IC50 (ug/ml) subtype A” value in assay [1] stood at 0.11 µg/mL. Besides, the “Neut IC50 (ug/ml) subtype B” value in assay [2] was 0.26 µg/mL. Besides, the Kd in [3] was 0.123 nM.

B2: ADI-21078 (antibody, V domains shown)
VH: EVQLVESGGGLVKPGGSLRLSCAASGFRLSDYYMSWIRQAPGKGLEWISDISGGSTYTNYADSVKGRLTISRDNAQNSLYLQMNSLRAEDTAVYYCARWGSGGPDAFHFWGQGTTVTVSS
VL: QSVLTQPPSVSGVPGQRVTISCTGSRSNIGAGYDVHWYRQLPGTAPKLLIYGNSNRPSGVPDRFSGSKSGTSASLAITGLQADDEADYYCQSYDSSLSGSVIFGGGTKVTVL
Take B2: the “Neut IC50 (ug/ml) subtype A” value in assay [1] turned out to be 0.03 µg/mL. Further, the “Neut IC50 (ug/ml) subtype B” value in [2] was 0.2 µg/mL. For the same molecule, the Kd in assay [3] worked out at 0.311 nM.

B3: ADI-41449 (antibody, V domains shown)
VH: EVQLVESGGGLVKPGGSLRLSCAASGFSFSSYRVNWVRQAPGKGLEWVSSITGGSSFIDYADSVKGRFTISRDNAKNSLFLQMNSLRAEDTAVYFCARDSMTTVTNSLAFDIWGQGTMVTVSS
VL: QSVLTQPPSVSGAPGQRVTISCTGSSSNIGVGYDVQWYQQLPGTAPKLLIYSNNKRPSGVPDRFSGSKSGTSASLAITGLQAEDEADYYCQSYDRSLSVVFGGGTKVTVL
notes: IgG1
In [4], B3 showed a Kd of 0.508 nM. Besides, the binding result in assay [5] is given as “no binding (tested: 100 nM antigen)”. Besides, the “Neutralization IC50 (RSV subtype A)” value in assay [6] amounted to 0.16 mg/L.

B4: ADI-41450 (antibody, V domains shown)
VH: EVQLVESGGGLVKPGGSLRLSCAASGFAFSSYGINWVRQVPGKRLEWVSSISGGSSFINYADSVKGRFTISRDNAGNSVYLQMNSLRAEDTAVYFCARESYGSGSSLNWFDPWGQGTLVTVSS
VL: QSVLTQPPSVSGAPGQRVTISCTGSGSNIGAGYDVHWYQQLPGIAPRLVIFGNRNRPSGVPDRISGSKSDTSASLAITGLQAEDEGDYYCQSYDKRLSGWVFGGGTKLTVL
notes: IgG1
With B4, the Kd in [4] was 0.613 nM. For the same molecule, the binding result in [5] is reported as “no binding (tested: 100 nM antigen)”. Besides, the “Neutralization IC50 (RSV subtype A)” value in assay [6] worked out at 0.21 mg/L.

B5: ADI-41790 (antibody, V domains shown)
VH: QVQLVQSGAEVKKPGSSVKVSCKASGGTFSNYGISWVRQAPGQGLERLGGIIPIYGTANHAQNFQGRVTITADESTSTAYMELSSLRSEDTAVYYCARDGTFVRYYGMDVWGQGTTVTVSS
VL: EIVLTQSPATLFLSPGERATLSCRASQSVSNYLAWFQQKPGQAPRLLIYDTSIRATGIPARFSGSGSGTDFTLTISSLEPEDFAFYYCQQRSNWPPTFGGGTKLEIK
Turning to B5, the “Neutralization IC50 (RSV subtype A)” value with RSV F on RSV-A2 virus was greater than 25 mg/L. Moreover, the binding result in assay [7] is reported as “no binding (tested: 100 nM antigen)”. Moreover, the Kd in assay [8] stood at 3.15 nM.

B6: ADI-41787 (antibody, V domains shown)
VH: EVQLLESGGGVVQPGRSLRLSCAASGFTFSSSGMHWVRQAPGKGLEWVAIISSDGSKHYYADSVKGRFTISRDNSKNTLYLEMNSLRAEDSAVYYCAREGVWSGFFVDTGTDFRHHGMDVWGQGTTVTVSS
VL: SYELTQPPSVSVSPGQTARITCSGDALPKKFAFWYQQKSGQAPLLVIHEDNKRPSGIPERFSGSSSGTLATLTISGAQVEDEADYYCYSIDTSANLGVFGGGTKLTVL
For the molecule B6, the “Neutralization IC50 (RSV subtype A)” value with RSV F on RSV-A2 virus amounted to 0.38 mg/L. Further, the binding result in assay [7] is recorded as “no binding (tested: 100 nM antigen)”. The Kd in [8] is 1.56 nM.

B7: ADI-41454 (antibody, V domains shown)
VH: QVQLVQSGAEVKKPGASVKVSCKASGYTFTHFGISWVRQAPGQGLEWMGWISIYNGNTNYAQKIQGRATMTTDASTSTAYMELRSLTSDDTAVYYCAREPPSTTAAATSDYWGQGTLVTVSS
VL: DIVMTQSPLSLPVTLGQPASISCRSSQSLVYIEGNTYLSWFQQRPGQSPRRLIYKVSNRDSGVPDRFSGSGSGTDFTLKISRVEAEDVGLYYCMQGTHWPRTFGQGTKLEIK
notes: IgG1; also called Ab 738
In turn, B7 gave a Kd in [4] of 0.588 nM. Besides, the binding result in assay [5] is reported as “no binding (tested: 100 nM antigen)”. In addition, the “Neutralization IC50 (RSV subtype A)” value in [6] was found to be 0.88 mg/L.

B8: ADI-41421 (antibody, V domains shown)
VH: QVQLVESAAEVKRPGASLKVSCKASGYTFIDYDISWVRQAPGQGLDWMGWISTYDGSAKYPENLQARVAMTTDTSTSTAYMELESLTSDDTAVYYCARARRGSSGWVSTTGPTPFFDYWGRGTLVTVSS
VL: SYELTQPPSVSVSPGQTARITCSGDALPKRYAYWYQQKSGQAPVLVIYEDNKRPSGIPERFSGSSSGTVATLTISGAQVEDEADYSCYSTDATGNHRGLFGGGTKLTVL
notes: IgG1
In assay [4], B8 registered a Kd of 2.52 nM. In addition, the binding result in assay [5] is listed as “no binding (tested: 100 nM antigen)”. In assay [6], the “Neutralization IC50 (RSV subtype A)” value was 4.78 mg/L.

B9: ADI-41434 (antibody, V domains shown)
VH: EVQLVESGGGLVQPGRSLRLSCEASGFTFDDYAMHWVRQTPGKGLEWVSGISWNSGSIVYADSVKGRFTISRDNAKNSLYLQMHSLRPEDTALYYCAKDNYTFGNYYYYYGMDVWGQGTTVTVSS
VL: EIVLTQSPVTLSVSPGERATLSCRASQNVISNLAWYQQKPGQAPRLLIYGASTRATGIPARFSGSGSGTEFTLTISSLQSEDFAVYYCQQYNNWPLSFGGGTKVEIK
notes: IgG1; also called Ab 718
In assay [4], B9 had a Kd of 0.613 nM. Besides, the binding result in assay [5] is “no binding (tested: 100 nM antigen)”. Further, the “Neutralization IC50 (RSV subtype A)” value in assay [6] is greater than 25 mg/L.

B10: ADI-41442 (antibody, V domains shown)
VH: EVQLLESGGGLVQPGRSLRLSCAASGFTFDDYAMHWVRQAPGKGLEWVSGISWHSGSIVYADSVKGRFTISRDNAKNSLYLQMSSLRAEDTALYYCVKDHYNWNDNPHFHYGLDVWGQGTTVTVSS
VL: B9 VL with V9A, N28S, L47F, Y87F, L96I, S97T, G100Q, K103R, V104L
notes: IgG1; also called Ab 726
In assay [4], B10 yielded a Kd of 0.521 nM. Further, the binding result in [5] is on record as “no binding (tested: 100 nM antigen)”. Moreover, the “Neutralization IC50 (RSV subtype A)” value in assay [6] is 0.04 mg/L.

B11: ADI-41756 (antibody, V domains shown)
VH: EVQLLESGGGVVQPGRSLRLSCAASGLSFNSFGMHWVRQAPGKGLEWVAVIAYDGSNKYYADSVKGRFSISRDNSKNTLYLQMDSLRAEDTAVYYCAKAEAPNFSWSGYLSAFDIWGQGTTVTVSS
VL: QPVLTQPASVSGSPGQSVTVSCTGTSDDVGDYNYVSWYQQHPGKAPKLLIFEVSDRPSGVSTRFSGSKSGNTASLTISGLQTEDEADYYCSSYTSRNLYVFGTGTKVTVL
On to B11, for which the “Neutralization IC50 (RSV subtype A)” value with RSV F on RSV-A2 virus is greater than 25 mg/L. Further, the binding result in [7] was “no binding (tested: 100 nM antigen)”. Besides, the Kd in assay [8] came out at 29 nM.

B12: ADI-41809 (antibody, V domains shown)
VH: QVTLKESGGGLVQPGGSLRLSCAASGFTFSNYAMSWVRQAPGKGLEWVSAISHSDSRTFYADSVKGRFTISRDNSKNTLFLQMDSLRAHDTAVYYCANVDPSSVTYYGYYYGMDVWGQGTTVTVSS
VL: QSVLTQPPSASGTPGQRVTISCSGSSSNIGKNFVYWYQQFPGTAPKRLIYRNNQRPSGVPDRFSGSRSGTSASLAISGLRSEDEADYYCATWDDSLSGWVFGGGTKLTVL
Consider B12, for which, in the assay with RSV F on RSV-A2 virus, the “Neutralization IC50 (RSV subtype A)” value was greater than 25 mg/L. Also, the binding result in [7] is on record as “no binding (tested: 100 nM antigen)”. This molecule returned a Kd in assay [8] of 2.65 nM.

B13: ADI-21080 (antibody, V domains shown)
VH: EVQLLESGGGLVKPGGSLRLSCEVSGFRLSDYYMSWIRQAPGKGLEWVSHISGGSTYTNYADSVKGRFTISRDNGKKSMYLQMNSLRAEDTALYYCAKWGSGGPEAFDIWGRGTMVTVSS
VL: QSALIQPPSVSGAPGQRVTISCTGSSSNIGAGYDVHWYQQIPGTAPKLLIYGNNNRPSGVPDRFSGSKSGTSASLAITGLQAEDEADYYCQSYDNSLSGSVVFGGGTKLTVL
For B13, the “Neut IC50 (ug/ml) subtype A” value in [1] was 0.1 µg/mL. In addition, the “Neut IC50 (ug/ml) subtype B” value in [2] worked out at 0.17 µg/mL. In assay [3], the Kd is 0.36 nM.

B14: ADI-41452 (antibody, V domains shown)
VH: QVQLVQSGAELKKPGASVKVSCKASGHTFATYAIHWVRQAPGQSLEWLGWINTANGDTKYSQKFRATVTIHGDTSANTVYLELSRLRSEDTAVYYCASPPLVGAINLEFWGPGTLVTVSS
VL: QSVLTQPASVSGSVGQSITISCTGTSSDVGGYNSVSWYQHHPDKAPKLIIYEVSNRPSGVSHRFSGSKSGNTASLTISGLQAEDEADYYCSSYTTSDTLIFGGGTKVTVL
notes: IgG1; also called Ab 736
Molecule B14 registered a Kd in assay [4] of 3.33 nM. In addition, the binding result in assay [5] is on record as “no binding (tested: 100 nM antigen)”. In addition, the “Neutralization IC50 (RSV subtype A)” value in assay [6] was greater than 25 mg/L.

B15: ADI-41447 (antibody, V domains shown)
VH: EVQLLESGGGLVQPGGSLRLSCAASGFTFSTYAMNWVRQAPGKGLEWVSTISGSGGSTYYGDSVKGRFTISRDNSKNTLYLQMNSLRAEDTAVYYCAKAPTPWCSGGSCYVSYWGQGTLVTVSS
VL: DIVMTQTPGTLSLSPGERGTLSCRASQSVSSSYLAWYQQKPGQAPRLLIYGASSRATGIPDRFGGSGSGTDFTLTISTLEPEDFAVYYCQQYQSSPWTFGQGTKLEIK
notes: IgG1
On to B15, for which the Kd in [4] amounted to 54.1 nM. For the same molecule, in [5], the binding result is on record as “no binding (tested: 100 nM antigen)”. In addition, the “Neutralization IC50 (RSV subtype A)” value in assay [6] was greater than 25 mg/L.
